The values below come from patent US20080220049A1 (published 2008).

Assay [1] addresses T1, mouse vascular endothelial growth factor receptor-2 Fc chimera (Flk-1-Fc) (mouse, UniProt P35918 20-762).
T1 construct: Purchased from R&D Systems; also called mouse VEGF-R2; not shown: Fc portion of the purchased chimera is not described
Kind of assay: radioactive equilibrium binding assay, % of input at 1 nM Flk-1-Fc.
T1 sequence (P35918 20-762, change not shown): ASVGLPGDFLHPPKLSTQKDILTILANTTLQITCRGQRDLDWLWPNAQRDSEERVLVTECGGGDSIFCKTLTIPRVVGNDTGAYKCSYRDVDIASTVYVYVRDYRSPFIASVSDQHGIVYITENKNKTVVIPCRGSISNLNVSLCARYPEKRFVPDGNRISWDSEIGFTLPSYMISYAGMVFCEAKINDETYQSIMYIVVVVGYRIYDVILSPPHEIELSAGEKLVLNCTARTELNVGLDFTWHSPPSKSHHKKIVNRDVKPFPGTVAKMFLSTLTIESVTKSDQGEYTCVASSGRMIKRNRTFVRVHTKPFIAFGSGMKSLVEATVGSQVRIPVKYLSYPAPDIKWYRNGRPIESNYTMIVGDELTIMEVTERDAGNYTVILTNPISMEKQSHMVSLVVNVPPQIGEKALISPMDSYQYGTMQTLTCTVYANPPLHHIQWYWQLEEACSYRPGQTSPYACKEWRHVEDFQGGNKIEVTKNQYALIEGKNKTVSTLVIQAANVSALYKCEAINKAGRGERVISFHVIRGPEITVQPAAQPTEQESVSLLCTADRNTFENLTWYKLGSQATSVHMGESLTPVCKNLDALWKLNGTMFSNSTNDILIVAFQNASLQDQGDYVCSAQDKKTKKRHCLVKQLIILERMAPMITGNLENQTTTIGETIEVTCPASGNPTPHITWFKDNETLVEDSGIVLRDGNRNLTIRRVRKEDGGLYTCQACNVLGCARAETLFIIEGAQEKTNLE

For assay [2], the target named is T2, human vascular endothelial growth factor receptor-2 Fc chimera (KDR-Fc) (human, UniProt P35968 20-764).
T2 construct: range 1-764; bought from R&D Systems; stated range 1-764 counts from the first residue of the precursor; also called human VEGF-R2-Fc; not shown: human IgG1 Fc
Kind of assay: radioactive equilibrium binding, 1 nM KDR-Fc. The procedure: (§1) To prepare ³⁵S-labeled binding proteins for analysis, mRNA was prepared as described above for RNA-protein fusion production but the linker ligation step was omitted. The mRNA was expressed using rabbit reticulocyte lysate translation kit (Ambion) in the presence of ³⁵S-labeled Met at 30° C. for 1 hour. Expressed protein was purified on M2-agarose Flag beads (Sigma) as described above. This procedure produced the encoded protein without the nucleic acid tail. In a direct binding assay, VEGF-R2-Fc fusions in concentrations ranging from 0 to 200 nM were added to a constant concentration of the purified protein (0.2 or 0.5 nM) and incubated at 30° C. for 1 hour in buffer B. The receptor-binder complexes were captured using Protein A magnetic beads for another 10 minutes at room temperature using a Kingfisher™. The beads were washed with six reaction volumes of buffer B. The protein was eluted from the beads with 100 μL of 0.1 M KOH. 50 μL of the reaction mixture and elution were dried onto a LumaPlate-96 (Packard) and the amount of ³⁵S on the plate was measured using a TopCount NXT instrument (Packard). The amount of fibronectin-based scaffold protein bound to the target was estimated as a percent of radioactivity eluted from Protein A magnetic beads compare to radioactivity in the reaction mixture. Nonspecific binding of fibronectin-based scaffold proteins to the beads was determined by measuring binding in the absence of KDR-Fc and represented less than 1-2% of the input. Specific binding was obtained through subtraction of nonspecific binding from total binding. Data was analyzed using the GraphPad Prizm software (GraphPad Software, Inc, San Diego, Calif.), fitted using a one site, non-linear binding equation.
T2 sequence (P35968 20-764 limits assumed, change not shown, form in doubt): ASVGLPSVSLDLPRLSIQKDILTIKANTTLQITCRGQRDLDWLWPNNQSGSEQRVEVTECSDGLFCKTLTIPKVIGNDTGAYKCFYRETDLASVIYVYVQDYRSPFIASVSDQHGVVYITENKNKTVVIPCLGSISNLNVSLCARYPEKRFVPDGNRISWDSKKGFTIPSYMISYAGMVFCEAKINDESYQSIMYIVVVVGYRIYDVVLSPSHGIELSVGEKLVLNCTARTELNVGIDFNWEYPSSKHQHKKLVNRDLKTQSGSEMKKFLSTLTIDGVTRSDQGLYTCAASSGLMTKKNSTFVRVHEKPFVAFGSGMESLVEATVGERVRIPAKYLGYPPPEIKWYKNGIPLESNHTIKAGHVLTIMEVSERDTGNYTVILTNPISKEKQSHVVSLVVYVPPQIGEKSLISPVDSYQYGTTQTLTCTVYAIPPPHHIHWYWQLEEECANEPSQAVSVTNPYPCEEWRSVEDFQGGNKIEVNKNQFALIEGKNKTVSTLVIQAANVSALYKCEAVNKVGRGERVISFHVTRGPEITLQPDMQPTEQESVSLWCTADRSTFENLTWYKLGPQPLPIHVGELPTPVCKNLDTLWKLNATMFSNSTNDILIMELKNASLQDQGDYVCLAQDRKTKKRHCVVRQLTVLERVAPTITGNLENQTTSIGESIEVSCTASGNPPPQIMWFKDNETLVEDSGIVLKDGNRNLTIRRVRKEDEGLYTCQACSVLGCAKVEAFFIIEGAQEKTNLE

The target in assay [3] is T3, mouse vascular endothelial growth factor receptor-2 Fc chimera (Flk-1-Fc) (mouse, UniProt P35918 20-762).
T3 construct: Bought from R&D Systems; also called mouse VEGFR-2; Fc part of the bought chimera not given
Kind of assay: radioactive equilibrium binding, 1 nM Flk-1-Fc. The method, then: as §1
T3 sequence (P35918 20-762, change not shown): as the sequence (P35918 20-762, change not shown) above

For assay [4], the target named is T4, human vascular endothelial growth factor receptor-2 Fc chimera (KDR-Fc) (human, UniProt P35968 20-764).
T4 construct: range 1-764; Bought from R&D Systems; limits 1-764 are stated for the selection target; also called human VEGFR-2; not shown: human IgG1 Fc
Briefly: radioactive equilibrium binding, 1 nM KDR-Fc. The procedure:
as §1
T4 sequence (P35968 20-764 limits assumed, change not shown, form in doubt): as the sequence (P35968 20-764 limits assumed, change not shown, form in doubt) above

For assay [5], the target named is T5, full-length human KDR on cells (human, UniProt P35968 20-1356).
T5 construct: whole, on cells; also called CHO KDR; CHO-KDR
T5 sequence (P35968 20-1356): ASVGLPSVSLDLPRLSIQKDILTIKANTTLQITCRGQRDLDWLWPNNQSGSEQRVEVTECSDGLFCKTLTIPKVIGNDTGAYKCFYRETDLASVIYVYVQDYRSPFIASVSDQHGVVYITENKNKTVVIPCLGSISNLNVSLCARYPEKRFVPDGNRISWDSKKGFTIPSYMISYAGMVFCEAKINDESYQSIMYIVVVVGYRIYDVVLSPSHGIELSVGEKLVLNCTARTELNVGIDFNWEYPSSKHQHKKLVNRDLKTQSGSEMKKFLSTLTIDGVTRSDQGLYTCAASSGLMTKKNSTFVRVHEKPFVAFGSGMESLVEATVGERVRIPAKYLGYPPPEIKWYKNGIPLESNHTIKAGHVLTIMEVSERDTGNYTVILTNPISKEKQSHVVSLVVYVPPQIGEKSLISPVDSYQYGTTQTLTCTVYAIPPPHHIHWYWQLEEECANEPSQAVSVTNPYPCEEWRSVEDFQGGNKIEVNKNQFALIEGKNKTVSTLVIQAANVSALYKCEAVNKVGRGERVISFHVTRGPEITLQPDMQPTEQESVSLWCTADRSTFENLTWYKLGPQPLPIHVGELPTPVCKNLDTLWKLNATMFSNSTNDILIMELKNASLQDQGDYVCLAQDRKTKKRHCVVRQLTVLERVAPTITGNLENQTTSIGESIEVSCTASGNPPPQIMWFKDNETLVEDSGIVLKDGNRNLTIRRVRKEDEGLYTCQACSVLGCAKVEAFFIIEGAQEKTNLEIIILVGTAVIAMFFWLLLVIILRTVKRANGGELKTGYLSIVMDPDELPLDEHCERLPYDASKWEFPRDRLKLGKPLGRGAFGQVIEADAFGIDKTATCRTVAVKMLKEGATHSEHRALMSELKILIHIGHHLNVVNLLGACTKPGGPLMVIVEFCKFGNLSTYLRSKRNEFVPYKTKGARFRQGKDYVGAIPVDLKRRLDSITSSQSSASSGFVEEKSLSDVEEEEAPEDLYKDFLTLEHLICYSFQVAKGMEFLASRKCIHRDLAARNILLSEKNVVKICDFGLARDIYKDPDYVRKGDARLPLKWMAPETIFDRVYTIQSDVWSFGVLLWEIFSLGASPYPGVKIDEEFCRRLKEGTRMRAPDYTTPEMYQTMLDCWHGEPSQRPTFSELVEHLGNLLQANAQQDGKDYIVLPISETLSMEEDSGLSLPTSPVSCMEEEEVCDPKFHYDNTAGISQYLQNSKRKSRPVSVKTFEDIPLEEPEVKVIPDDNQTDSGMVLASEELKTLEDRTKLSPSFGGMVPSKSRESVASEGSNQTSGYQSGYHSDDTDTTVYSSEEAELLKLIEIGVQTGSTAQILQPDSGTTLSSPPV
Kind of assay: flow cytometry on CHO KDR cells. The procedure:
Binding of fibronectin-based scaffold protein to cell-surface KDR and Flk-1 was analyzed simultaneously on VEGF-R2-expressing and control cells by flow cytometry. CHO-pcDNA3 cells (control) were released from their dishes with trypsin-EDTA, washed in Dulbecco's PBS without calcium and magnesium (D-PBS⁻; Invitrogen), and stained for 30 minutes at 37° C. with 1.5 μM CMTMR (5-(and-6)-(((4-chloromethyl)benzoyl)amino)-tetramethylrhodamine) (Molecular Probes). The cells were washed in D-PBS⁻ and incubated for a further 30 minutes at 37° C., and then resuspended in blocking buffer (D-PBS⁻/10% fetal bovine serum) on ice. CHO-KDR or CHO-Flk cells were treated identically except that CMTMR was omitted. […] For cells treated with an anti-KDR mouse monoclonal antibody (Accurate Chemical, Westbury, N.Y.) or an anti-flk-1 goat polyclonal antibody (R&D Systems), the anti-His₆ step was omitted, and antibody binding was detected with the species-appropriate Alexa Fluor 488 conjugated secondary antibody (Molecular Probes). Following staining, cells were resuspended in 200 μl/well D-PBS⁻/1% FBS/1 μg/ml 7-aminoactinomycin D (7-AAD; Molecular Probes) and analyzed by flow cytometry on a FACSCalibur (Becton Dickinson, San Jose, Calif.) equipped with a […] laser. […]

B1: E2 (designed binder)
chain: EVVAATPTSLLISWRHPHFPTRYYRITYGETGGNSPVQEFTVPLQPPTATISGLKPGVDYTITGYAVTDGPNDRLLNIPISINYRT
notes: 10Fn3 variant, residues 1-8 deleted
Turning to B1, in assay [1], the “Binding to 1 nM FLK, %” value was determined as 10%.

B2: 3′E10 PR4 (designed binder)
chain: EVVAATPTSLLISWRHPHFPTRYYRITYGETGGNSPVQEFTVPLQPPTATISGLKPGVDYTITGYAVTAGHKDQELLTPISINYRT
As to B2, the “Binding to 1 nM KDR, %” value in assay [2] was determined as 21%.

B3: 2′Del F6 PR4 (designed binder)
chain: EVVAATPTSLLISWRHPHFPTRYYRITYGETGGNSPVQEFTVPLQPPTATISGLKPGVDYTITGYAVTLGWNDHELYIPISINYRT
Turning to B3, the “Binding to 1 nM KDR, %” value in assay [2] worked out at 22%.

B4: F6 (designed binder)
chain: EVVAATPTSLLISWRHPHFPTRYYRITYGETGGNSPVQEFTVPLQPPTATISGLKPGVDYTITGYAVTVEQNGRVLMTPISTNYRT
notes: Del 1-8; assay tags not included; Framework 4 printed as ISTNYRT
As to B4, the “Binding to 1 nM Flk-1, %” value in assay [3] came to 2%. Besides, in assay [4], the “Binding to 1 nM KDR, %” value was 37%.

B5: F5 (designed binder)
chain: EVVAATPTSLLISWRHPHFPTRYYRITYGETGGNSPVQEFTVPLQPPTATISGLRPGVDYTITGYAVTVERDGRELNIPISINYRT
notes: Del 1-8; assay tags not included
B5: in assay [3], the “Binding to 1 nM Flk-1, %” value was 8%. Further, in assay [4], the “Binding to 1 nM KDR, %” value is 12%.

B6: D9 (designed binder)
chain: EVVAATPTSLLISWRHPHFPTRYYRITYGETGGNSPVQEFTVPLQPPTATISGLRPGVDYTITGYAVTEERNGRVLFTPISINYRT
notes: as for B5
Regarding B6, the “Binding to 1 nM Flk-1, %” value in assay [3] worked out at 40%. Further, the “Binding to 1 nM KDR, %” value in assay [4] came out at 31%.

B7: wild type fibronectin-based scaffold protein (tenth type III domain of human fibronectin) (other)
chain: VSDVPRDLEVVAATPTSLLISWDAPAVTVRYYRITYGETGGNSPVQEFTVPGSKSTATISGLKPGVDYTITGYAVTGRGDSPASSKPISINYRT
notes: E. coli produced with His6 tag; also called WT; 10Fn3
Turning to B7, the binding result in assay [5] is listed as “no binding”.
